In article PMC10713829 (2023):

Target: HLA-A*01:01/hβ2m complex (empty, peptide-free or peptide-receptive) (human)
Assay: FP

- IC50: 278 nM
Binder: ILDTAGQEEY [NRAS_(55-64) wild-type (Q61) peptide]
